# Where “and” joins values, the source holds several entries; their conditions need not be identical. Identical values can stand only once.
# T1: Arkadia SUMO-binding domain (residues 285-416), wild type (mouse, UniProt Q99ML9 285-416)
# T1 construct: it holds SIM1, SOB and SIM2; Subcloned into pGEX-TEV/N (TEV site after the thrombin site); also called Arkadia-WT 285-416; SIM domain of Arkadia
# T1 sequence (looked up): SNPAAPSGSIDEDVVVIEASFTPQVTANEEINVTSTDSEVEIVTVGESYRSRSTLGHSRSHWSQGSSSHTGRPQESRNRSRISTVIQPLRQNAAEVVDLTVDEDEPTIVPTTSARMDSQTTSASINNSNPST
# Target: T1, Arkadia SUMO-binding domain (residues …)
# Assay: ITC; iTC200; ITC buffer (50 mM Tris/HCl pH 7.5, 150 mM NaCl, 2 mM DTT, 5% glycerol), 30 °C; 20-30 injections up to a twofold to threefold molar excess; which partner was in the syringe is not told; single titrations and their mean
# Conditions: both partners purified
row,Binder,Kd
1,linear SUMO1-capped SUMO2 trimer (SUMO1-ΔN15 - 2xSUMO2-ΔN11) (other) KKEGEYIKLKVIGQDSSEIHFKVKMTTHLKKLKESYCQRQGVPMNSLRFLFEGQRIADNHTPKELGMEEEDVIEVYQEQTRSTENNDHINLKVAGQDGSVVQFKIKRHTPLSKLMKAYCERQGLSMRQIRFRFDGQPINETDTPAQLEMEDEDTIDVFQQQTRSTENNDHINLKVAGQDGSVVQFKIKRHTPLSKLMKAYCERQGLSMRQIRFRFDGQPINETDTPAQLEMEDEDTIDVFQQQTGG,3500 nM and 2100 nM and 2300 nM and 1500 nM
2,linear SUMO1-capped SUMO2 dimer (SUMO1-ΔN15 - SUMO2-ΔN11) (other) KKEGEYIKLKVIGQDSSEIHFKVKMTTHLKKLKESYCQRQGVPMNSLRFLFEGQRIADNHTPKELGMEEEDVIEVYQEQTRSTENNDHINLKVAGQDGSVVQFKIKRHTPLSKLMKAYCERQGLSMRQIRFRFDGQPINETDTPAQLEMEDEDTIDVFQQQTGG,1400 nM and 3800 nM and 2100 nM

# Source: paper PMC6695498, “Arkadia/RNF111 is a SUMO-targeted ubiquitin ligase with preference for substrates marked with SUMO1-capped SUMO2/3 chain” (Nature Communications, 2019)
